{
  "source": "the nanobody polyreactivity screen of Harvey et al. (2022)",
  "data": [
    {"test": "yeast display, Sf9 membrane polyspecificity reagent, FACS + sequencing; frameworks hold sequencing errors", "summary_of_the_method": "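Nanobodies from a synthetic yeast display library (Saccharomyces cerevisiae BJ5465), induced 36–48 hours with galactose, were stained 1 hour at 4 °C with 10% biotinylated, detergent-solubilized Sf9 membrane reagent, enriched on streptavidin microbeads, then FACS-sorted. Anti-HA (expression) and streptavidin (reagent binding) fluorescence set low and high (top ~1%) gates. Polyreactivity labels come from the gate of origin. Genes were colony-PCR amplified, MiSeq 2 × 250 sequenced and filtered by CDR length.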", "values": [
      {"sequence": "QVQLVESGGGLVQAGGSLRLTCAASGLTFWWYAMGWYRQAPGKERELVAGITGGGSTSYADSVKGRFTISRDNAKNTVYLQMNSLIQEDTAVYYCAASPYNGQRTWYKYFFLGDYWGQGTQVTVSS", "polyreactivity (PSR sort gate)": "high polyreactivity"},
      {"sequence": "QVQLVESGGGLVQAGGSLRLTCAASGNIFVGNDMGWYRQAPGKERELVAAISSGDTTSYADSVKGRFTISRDNAKNTVYLKMNSLKPEETAVYYCAVDRSLSPFAYDYWGQGTQVTVSS", "polyreactivity (PSR sort gate)": "low polyreactivity"},
      {"sequence": "QVQLVESGGGLVQAGGSLRLTCAASGNIFYINAMGSYRQAPGKDRELVAAIRGGGSTYYADSVKGRFTISRDNAKKTVYLQMTSLKAEDTAVYYCAARGRRLNPQYRAFGMDYWGQGTQVTVSS", "polyreactivity (PSR sort gate)": "high polyreactivity"},
      {"sequence": "QVQLVESGGGLVQAGGSLRLTCAASGRIFDRYVMGWYRQAPGKERELVAAITFSGGRTYYADSVKGRFTISRDNAKNTVYLQMNSLKPEDTAVYYCNRVYYQKIYDYWGQGTQVTVSS", "polyreactivity (PSR sort gate)": "high polyreactivity"},
      {"sequence": "QVQLVESGGGLVQAGGSLRLTCAASGRIFDYNDMGWYRQAPGKERELVAAITSDGSTNYADSVKGRFTISRDNAKNTVFLQMNSLKPEDPAVYYCAADTGETFDSIYDYWGQGTQVTVSS", "polyreactivity (PSR sort gate)": "low polyreactivity"},
      {"sequence": "QVQLVESGGGLVQAGGSLRLTCAASGRIFGYYVMGWYRQAPGKERELVAAIRSSADSTYYADSVKGRFTISRDNAKNTVYLQMNSLKPEDTAVYYCNADTTGYWSYGFQYYGEDYWGQGTQVTVSS", "polyreactivity (PSR sort gate)": "low polyreactivity"},
      {"sequence": "QVQLVESGGGLVQAGGSLRLTCAASGRIFKYYAMGWYRQAPGKEREFVADISRRGGSTYYADSVKGRFTISRDNAKNTVYLQMNSLKPEDTAVYYCAAQSGYIMDYWGQGTQVTVSS", "polyreactivity (PSR sort gate)": "high polyreactivity"},
      {"sequence": "QVQLVESGGGLVQAGGSLRLTCAASGRIFRVNGMGWYRQAPWKERDLVAPIRRSGGSTYYADSVKGRFTISRDNSKNNVYLQMKSLKPEDTAVYYCAAPVLLSSYTRYDSWGQGTQVTVSS", "polyreactivity (PSR sort gate)": "high polyreactivity"},
      {"sequence": "QVQLVESGGGLVQAGGSLRLTCAASGRIFWINDMVWNRQAPGKESELVAAIRSIGGSTYYADSVKGRFRISRDNAKNTVYLQMNSLKPEDTSVYYCAAKSSPKFRGRYYYWGQGTQVTVSS", "polyreactivity (PSR sort gate)": "low polyreactivity"},
      {"sequence": "QVQLVESGGGLVQAGGSLRLTCAASGRIFWRNAMGWYRQAPGKVREFVAAITGTGGSTYYADSVKGRFTISRDTAKNTVYLQMNSLKPEDTAVYYCAARWDYSYRYRLYYWGQGTQVTVSS", "polyreactivity (PSR sort gate)": "high polyreactivity"},
      {"sequence": "QVQLVESGGGLVQAGGSLRLTCAASGRTFAIYAMGWYRQAPRKEREFFDAISWSGGDTYYADSVKGRFTISRDNAKNTVYLQMNSLKAEDTAVYYCAARYIDYEGRDLQYELDYWGQGTQVSVSS", "polyreactivity (PSR sort gate)": "low polyreactivity"},
      {"sequence": "QVQLVESGGGLVQAGGSLRLTCAASGRTFAWYAMGWYRQAPGKERDLVAAISSAGSTYYADSVKGRFTISRDNAKNTVYLQMNSLKPEDTAVYYCAASFGRYTSGTYYYWGQGTQVTVSS", "polyreactivity (PSR sort gate)": "high polyreactivity"},
      {"sequence": "QVQLVESGGGLVQAGGSLRLTCAASGRTFDYYAMGWYRQAPGKERELVAAIRGSGGSTYYADSVKGRFTISRDNAKNTVYLQMNSLKPEDTAVYYCATDPPYFRTPWEYDYWGQGTQVTVSS", "polyreactivity (PSR sort gate)": "low polyreactivity"},
      {"sequence": "QVQLVESGGGLVQAGGSLRLTCAASGRTFGRYAMGWYRQAPGKEMDLVAAIRYTGGSTYADSVKGRFTISRDNAKNTVYLQMNRLKPEETAVYYCNRCGAFNTRNEITRYGYWGQGTQVTVSS", "polyreactivity (PSR sort gate)": "low polyreactivity"},
      {"sequence": "QVQLVESGGGLVQAGGSLRLTCAASGRTFGTYVMGWYIQAPGKERELVATISRRGGTTYYADSVKGRFTISRDNAKNTVYLQMNSLKPVDNAVYYCAATYFGTRYDYWGQGTQVTVSS", "polyreactivity (PSR sort gate)": "high polyreactivity"},
      {"sequence": "QVQLVESGGGLVQAGGSLRLTCAASGRTFLLYAMGWYRQAPGKERELVAAITSRSGRTYYADSVKGRFTISRDNAKNTVYLQMNSLKPEDTAVYYCAAQGYAPQEYEYWGQGTQVTVSS", "polyreactivity (PSR sort gate)": "high polyreactivity"},
      {"sequence": "QVQLVESGGGLVQAGGSLRLTCAASGRTFNDYAMGWYRQAPGKEMELVAGITWRGGSTYYADSVKGRFTISRHNAKNTVYLQMNSLKPEDTAVYYCAVKRPWRKMGYWGQGTQVTVSS", "polyreactivity (PSR sort gate)": "high polyreactivity"},
      {"sequence": "QVQLVESGGGLVQAGGSLRLTCAASGRTFQYYAMGWYRQAPGKERELVAAISQDGGSTYYADSVKGRFTISRDNSKNSVYLQMNSLKPEDTAVYYCAARVDEYAYYALDDYWGQGTQVTVSS", "polyreactivity (PSR sort gate)": "low polyreactivity"},
      {"sequence": "QVQLVESGGGLVQAGGSLRLTCAASGRTFSYYTIGWYRQAPGKELELVADITGSGGSTYYADSVKGRFTISRDNAKNTVYLQINSLKPEDTAVYYCSAGWPYVYYTWYWTMDYWGQGTQVTVSS", "polyreactivity (PSR sort gate)": "high polyreactivity"},
      {"sequence": "QVQLVESGGGLVQAGGSLRLTCAASGRTFTIYAMGWYRQAPGKERELVAAISSSSGSTYYADSVKGRFPISRDNAKNTVYLQKNSLKPEDTAVYYCAVKLSGQAAQRRYDYWGQGTQVTVSS", "polyreactivity (PSR sort gate)": "high polyreactivity"},
      {"sequence": "QVQLVESGGGLVQAGGSLRLTCAASGRTFTRYAMGWYRQAPGKERELVAAISGGGGSTYYADSVKGRFTISRDNAKNTVYLQMNSLKPEDTAVYYCNAAARGSSFDYWGQGTQVTVSS", "polyreactivity (PSR sort gate)": "low polyreactivity"},
      {"sequence": "QVQLVESGGGLVQAGGSLRLTCAASGRTFWTNAMGWYRQAPGKVRELVAAIRNSGGRTYYADSVKGRFTISRDNAKNTVYLQMNSLKPEDTAVYYCNADFWYSYGYDYWGQGTQVTVSS", "polyreactivity (PSR sort gate)": "low polyreactivity"},
      {"sequence": "QVQLVESGGGLVQAGGSLRLTCAASGRTFYLYAMGWYRQAPGKERELVAAITTSGGSTYYADSVKGRFTFSRDNAKNTVYLQMNSLKPEDTAVSYCNTDLSSTKFDYWGQGTQVTVSS", "polyreactivity (PSR sort gate)": "low polyreactivity"},
      {"sequence": "QVQLVESGGGLVQAGGSLRLTCAASGRTYRKNAMGWYRQAPGKETELVAAITGSSGTTYYADSVKARFTISRDNAKISVYFQMNSLKPEDTAVYYCATTVCDPGRRYYYWGLGTQVTVSS", "polyreactivity (PSR sort gate)": "high polyreactivity"},
      {"sequence": "QVQLVESGGGLVQAGGSLRLTCAASGSIFGDYAMGWYRQAPGKEREFVAGITRRGGRTYYADSVKGRFTISRDNAKNTVYLQMNSLKPEDTAVYYCNAVYSSSLRSKYDYWGQGTQVTVSS", "polyreactivity (PSR sort gate)": "high polyreactivity"},
      {"sequence": "QVQLVESGGGLVQAGGSLRLTCAASGSIFGFNAMGWYRQAPGKERELGAAISSGSTYYADSVKGRFTISRDNAKNTVYLQINSLKPEDTAVYYCNARSNRGRFEYWGQGTQVTESS", "polyreactivity (PSR sort gate)": "low polyreactivity"},
      {"sequence": "QVQLVESGGGLVQAGGSLRLTCAASGSIFLYYAMGWYRQAPGKERELVAGINRVGSTNYADSVKGRFTISRDNAKNTVNLQMNSLKPEDTAVYYCNKRATRSRRRGYWGQGTQVTVSS", "polyreactivity (PSR sort gate)": "low polyreactivity"},
      {"sequence": "QVQLVESGGGLVQAGGSLRLTCAASGSIFNRYSMGWYRQATGKERELVAVIRWRDGSTYYADSVKGRFTISRDNEKNTVYLQMNSLKPEDTAVYYCAAVYWGEEYEYWGQGTQVTVSS", "polyreactivity (PSR sort gate)": "low polyreactivity"},
      {"sequence": "QVQLVESGGGLVQAGGSLRLTCAASGSIFPYYAMGWYRQAPGKEREFVAVISRRGGSTYYADSVKGRFTISRDNAKNTVYLQMNSLKPEDTAVYYCNARGYNLLDDWGQGTQVTVSS", "polyreactivity (PSR sort gate)": "high polyreactivity"},
      {"sequence": "QVQLVESGGGLVQAGGSLRLTCAASGSIFRVNAMGWYRQAPGKERELVAAISSGGSTHYADSVKGRFTMSRDNAKNTVYLLMNSLKPEDTAVYYCAVRGERRYIYDYWGQGTQVTVSS", "polyreactivity (PSR sort gate)": "high polyreactivity"},
      {"sequence": "QVQLVESGGGLVQAGGSLRLTCAASGSIFRWNAMGWYRQAPGKERELVASITSGGSTYYADSVKGRFTISRDNAKNTVYLQMISLKPEDTAVYYCAAARYPGRKFDYWGQGTQVTVSS", "polyreactivity (PSR sort gate)": "high polyreactivity"},
      {"sequence": "QVQLVESGGGLVQAGGSLRLTCAASGSIFTYYVMGWYRQAPGKERELVATITGSSGSTYYADSVKGRFTISRDNAKNTVFLQMNSLKPEDTAVYYCATYGTLVYYYYPDMEYWGQGTQVTVSS", "polyreactivity (PSR sort gate)": "low polyreactivity"},
      {"sequence": "QVQLVESGGGLVQAGGSLRLTCAASGSIFVRNSMGWYRQAPGKERELVAAIIRSGGSTYYADSVKGRFTISRDNAKNTVYLQMNSLKPEDTAVYYCNALIRYNRYTGRDYWGQGTQVTVSS", "polyreactivity (PSR sort gate)": "high polyreactivity"},
      {"sequence": "QVQLVESGGGLVQAGGSLRLTCAASGSIFYLNAMGWYRQAPGKERELVATISNGGSTNYADSVKGRFTISRDNAKNTVYLQMYSLKPEDTAVYYCAAASGGTVVGEGDYWGLGTQVTVSS", "polyreactivity (PSR sort gate)": "low polyreactivity"},
      {"sequence": "QVQLVESGGGLVQAGGSLRLTCAASGSIFYLYAMGWYRQAPGKETELVAAISRTGSTYADSVKGRFTISRDNAKKTVYLQMNSLKPEDTAVYYCAAEYRYYWYGTMNYWGQGTQVTVSS", "polyreactivity (PSR sort gate)": "low polyreactivity"},
      {"sequence": "QVQLVESGGGLVQAGGSLRLTCAASGSIFYPYAMGWYRQAPGKERELVAAISWSGGSTYYADSVKGRFTISRDNAKNTVYLQMKSLKPEDTAVYYCNAVGHWFYSSGRYYGDDYWGQGTQVTVSS", "polyreactivity (PSR sort gate)": "high polyreactivity"},
      {"sequence": "QVQLVESGGGLVQAGGSLRLTCAASGSIIWAYAKGWYRQAPGKERELVAAISSGGSTYYADSVKGRFTISRDNAKNIVYLQMNCLKPEDTPVFYCAASWSRRYYYWGQGTQVTVSS", "polyreactivity (PSR sort gate)": "high polyreactivity"},
      {"sequence": "QVQLVESGGGLVQAGGSLRLTCAASGSISFGYAMGWYRQAPGKERELVAAITWSTARTYYADSVKGRFTISRDNAKNTVYLQMNSLKPEDTAVYYCAKGGYWGQGTQVTVSS", "polyreactivity (PSR sort gate)": "high polyreactivity"},
      {"sequence": "QVQLVESGGGLVQAGGSLRLTCAASGSIVWYAMGSYRQATGKEREVVAAISRRGGSTYYADSVKGRFTISRDNAKNTVYLQSKSLKSEDTAVYYCADRPAREEYDYWGQGTQVTVSS", "polyreactivity (PSR sort gate)": "high polyreactivity"},
      {"sequence": "QVQLVESGGGLVQAGGSLRLTCAASGSTFADYAMGWYRQAPGKERELVAAITGDGGNTYYADSVKGRFTISRDNAKNTVYLQMNSLKPEDTAVYYCAAEHETGAYYYWGLGTQVTVSS", "polyreactivity (PSR sort gate)": "high polyreactivity"},
      {"sequence": "QVQLVESGGGLVQAGGSLRLTCAASGSTFDTYAMGWYRQAPGKERELVAAISGSGVRTYYADSVKGRFTISRDNAKNTVYLQMNSLKPEDTAVYYCAARYPRRCGEYGYWGQGTQVTVSS", "polyreactivity (PSR sort gate)": "high polyreactivity"},
      {"sequence": "QVQLVESGGGLVQAGGSLRLTCAASGSTFKQNVMGWYRQAPGKERELVAAITSGGSTNYADSVKGRFTISRDNAKNTVYLQMNSLKPEDTAVYYCNKDTSGIYLDDYWGQGTQVTVSS", "polyreactivity (PSR sort gate)": "low polyreactivity"},
      {"sequence": "QVQLVESGGGLVQAGGSLRLTCAASGSTFPRYAMGWYRQAPGKEREFVAVIWSGGSTYYADSVKGRFTISRDNAKNTVYLQMNSLKPEDSAVYYCAAEYHTLSKYSGYATHDYWGQGTQVTVSS", "polyreactivity (PSR sort gate)": "low polyreactivity"}
    ]}
  ]
}
